According to US20210139548A1 (published 2021):
Values belong to the binder of their own block, whether it stands above or below them. *1 amine or outer side, *2 acyl side, *3 side chain or, on linkers, in order; H or OH if unused. Side-chain parts run from the residue outwards. The star is where a group is joined. C18 diacid = O=C(O)CCCCCCCCCCCCCCCCC(=O)*; γGlu = O=C(O)[C@H](CCC(=O)[*:2])N[*:1]; Isovaleryl = CC(C)CC(=O)*; AEEA = NCCOCCOCC(=O)O

What was measured:
[1] = target: T1, human neuropeptide Y2 receptor (human, UniProt P49146 1-381); test: ratio of apparent Ki, pH 8.1-8.2 over pH 7.1-7.2
T1 construct: whole, on cells; also called hNPY2 receptor; hNPY2-R
T1 sequence (looked up): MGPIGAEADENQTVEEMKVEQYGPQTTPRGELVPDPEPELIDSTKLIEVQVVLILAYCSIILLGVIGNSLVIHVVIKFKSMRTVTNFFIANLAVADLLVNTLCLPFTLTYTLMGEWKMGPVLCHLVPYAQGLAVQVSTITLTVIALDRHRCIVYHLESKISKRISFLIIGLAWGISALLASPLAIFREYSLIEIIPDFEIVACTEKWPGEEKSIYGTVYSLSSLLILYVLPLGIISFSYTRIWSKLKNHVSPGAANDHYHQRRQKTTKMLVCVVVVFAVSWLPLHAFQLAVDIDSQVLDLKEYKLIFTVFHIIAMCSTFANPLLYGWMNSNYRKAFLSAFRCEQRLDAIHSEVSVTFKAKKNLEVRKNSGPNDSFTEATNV
Method: (§1) The filtration RLB assay was carried out in 96-well plates in a final volume of 100 μl per well. Freeze-dried test peptides were dissolved in 100% dimethyl sulfoxide (DMSO) to stock solutions of 1 mM and serial dilutions were performed in assay buffer (50 mM HEPES, 5 mM MgCl₂, 1 mM CaCl₂, pH 7.4) containing 0.2% ovalbumin. […] Next, 80 μL membranes (HTS066M, ChemiSCREEN™ Human Neuropeptide Y2 Receptor Membrane Preparation, CHEMICON) were added to each well to give a final protein concentration of 0.5 μg/well. The plates were sealed and incubated at room temperature for 2 hours in a plate shaker set at 400 rpm. The incubation was stopped by vacuum filtration onto 0.5% poly-ethylene amine (PEI) presoaked GF/C filters using a 96-well FilterMate™ harvester (Perkin Elmer) followed by four washes with 300 μl/well ice-cold wash buffer (50 mM HEPES, 500 mM NaCl, pH7.4). Filter plates were then dried for 60 min at room temperature and the bottom of the plates was sealed with backing tape UniFilter-96. Finally, 50 μl/well scintillation counter cocktail (Microscint20, Packard) was added and the radioactivity was counted in the Packard TopCount NXT scintillation counter. IC₅₀ values (the half maximal inhibitory concentration of the agonist) were calculated by nonlinear regression analysis of sigmoidal dose-response curves.
(§2) Peptides (as TFA salts) were weighed out in a filter unit (Mini-UniPrep Syringeless Filter 0.45 μm, Whatman), and 0.1 M sodium diphosphate buffer at pH 6.4 or 7.4, respectively, or 0.2 M TRIS buffer at pH 8.3 was added to achieve 10 mg/ml final concentration. The peptide was (partially) dissolved by shaking the filter unit horizontally at approx. 400 rpm for 2 hours at room temperature. The sample was filtered to remove any insoluble particles.

[2] = target: T1, human neuropeptide Y2 receptor; test: ratio of apparent Ki, pH 6.1-6.2 over pH 7.1-7.2
Method: as §1, §2

[3] = target: T1, human neuropeptide Y2 receptor; test: RLB 6: apparent Ki of filtrate after incubation at pH 6.1-6.2
[4] = target: T1, human neuropeptide Y2 receptor; test: RLB 7: apparent Ki of filtrate after incubation at pH 7.1-7.2
Method: as §1, §2

[5] = target: T1, human neuropeptide Y2 receptor; test: radioligand competition (125I-PYY(1-36)), hNPY2R membranes
Procedure, shortened: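 Commercial human Y2 receptor membranes (0.5 μg protein/well) were incubated with peptide for 2 h at room temperature in 50 mM HEPES, 5 mM MgCl₂, 1 mM CaCl₂, pH 7.4, with 0.2% ovalbumin. Bound radioligand was separated on PEI-soaked GF/C filters and counted by scintillation, and IC₅₀ came from nonlinear sigmoidal regression.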

[6] = target: T1, human neuropeptide Y2 receptor; test: RLB 8: apparent Ki of filtrate after incubation at pH 8.1-8.2
Method: as §1, §2

[7] = target: T1, human neuropeptide Y2 receptor; test: cell-based or functional assay
human NPY1 receptor = target: T2, human NPY1 receptor (human, UniProt P25929 1-384); test: cell-based or functional assay
T2 sequence (looked up): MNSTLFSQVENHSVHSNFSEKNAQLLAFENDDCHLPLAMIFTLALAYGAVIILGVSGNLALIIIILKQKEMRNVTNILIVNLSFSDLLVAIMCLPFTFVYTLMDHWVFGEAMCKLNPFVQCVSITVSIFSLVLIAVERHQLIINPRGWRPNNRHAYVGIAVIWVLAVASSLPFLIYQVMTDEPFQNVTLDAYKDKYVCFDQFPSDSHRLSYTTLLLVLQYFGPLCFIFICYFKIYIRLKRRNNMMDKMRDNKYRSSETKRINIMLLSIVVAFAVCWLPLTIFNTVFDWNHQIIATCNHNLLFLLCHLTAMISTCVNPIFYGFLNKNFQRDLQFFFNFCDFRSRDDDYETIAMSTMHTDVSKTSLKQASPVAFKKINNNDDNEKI

human NPY5 receptor = target: T3, human NPY5 receptor (human, UniProt Q15761 1-445); test: cell-based or functional assay
T3 sequence (looked up): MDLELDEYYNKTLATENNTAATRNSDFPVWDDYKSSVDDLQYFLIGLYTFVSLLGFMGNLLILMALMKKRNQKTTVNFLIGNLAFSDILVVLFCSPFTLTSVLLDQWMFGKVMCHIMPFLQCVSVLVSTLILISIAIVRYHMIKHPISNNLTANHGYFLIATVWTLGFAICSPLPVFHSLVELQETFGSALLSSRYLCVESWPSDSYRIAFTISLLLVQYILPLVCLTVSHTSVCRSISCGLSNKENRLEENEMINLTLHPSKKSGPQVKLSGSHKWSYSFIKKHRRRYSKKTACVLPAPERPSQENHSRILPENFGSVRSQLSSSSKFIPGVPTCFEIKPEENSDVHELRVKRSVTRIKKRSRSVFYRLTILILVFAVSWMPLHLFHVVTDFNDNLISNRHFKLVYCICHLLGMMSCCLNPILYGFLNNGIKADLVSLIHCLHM

human NPY4 receptor = human NPY4 receptor (human, UniProt P50391 1-375); test: cell-based or functional assay
[8] = target: T1, human neuropeptide Y2 receptor; test: radioligand competition (125I-PYY(1-36)), hY2R membranes; DMSO stock
Method: as §1

[9] = target: T1, human neuropeptide Y2 receptor; test: cell-based or functional assay; remark: listed apart in the source

Chain of human NPY4 receptor (P50391 whole entry): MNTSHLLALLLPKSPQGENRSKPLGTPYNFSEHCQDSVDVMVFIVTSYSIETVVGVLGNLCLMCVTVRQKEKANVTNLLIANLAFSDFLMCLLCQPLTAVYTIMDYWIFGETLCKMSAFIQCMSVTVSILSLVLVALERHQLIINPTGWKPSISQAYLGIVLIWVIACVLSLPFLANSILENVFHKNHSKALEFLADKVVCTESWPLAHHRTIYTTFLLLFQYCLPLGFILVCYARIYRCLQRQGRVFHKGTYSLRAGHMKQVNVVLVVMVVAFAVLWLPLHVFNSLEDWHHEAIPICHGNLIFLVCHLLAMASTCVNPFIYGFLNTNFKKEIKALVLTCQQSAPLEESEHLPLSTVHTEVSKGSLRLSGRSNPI

B3: Ref. 3 (peptide)
peptide: Isovaleryl-RPEK([AEEA-AEEA-γGlu-C18 diacid])PGEDASPEELQRYYVSLRAYYNWLTRQRY-NH2
SMILES: CC(C)CC(=O)N[C@@H](CCCNC(=N)N)C(=O)N1CCC[C@H]1C(=O)N[C@@H](CCC(=O)O)C(=O)N[C@@H](CCCCNC(=O)COCCOCCNC(=O)COCCOCCNC(=O)CC[C@H](NC(=O)CCCCCCCCCCCCCCCCC(=O)O)C(=O)O)C(=O)N1CCC[C@H]1C(=O)NCC(=O)N[C@@H](CCC(=O)O)C(=O)N[C@@H](CC(=O)O)C(=O)N[C@@H](C)C(=O)N[C@@H](CO)C(=O)N1CCC[C@H]1C(=O)N[C@@H](CCC(=O)O)C(=O)N[C@@H](CCC(=O)O)C(=O)N[C@@H](CC(C)C)C(=O)N[C@@H](CCC(N)=O)C(=O)N[C@@H](CCCNC(=N)N)C(=O)N[C@@H](Cc1ccc(O)cc1)C(=O)N[C@@H](Cc1ccc(O)cc1)C(=O)N[C@H](C(=O)N[C@@H](CO)C(=O)N[C@@H](CC(C)C)C(=O)N[C@@H](CCCNC(=N)N)C(=O)N[C@@H](C)C(=O)N[C@@H](Cc1ccc(O)cc1)C(=O)N[C@@H](Cc1ccc(O)cc1)C(=O)N[C@@H](CC(N)=O)C(=O)N[C@@H](Cc1c[nH]c2ccccc12)C(=O)N[C@@H](CC(C)C)C(=O)N[C@H](C(=O)N[C@@H](CCCNC(=N)N)C(=O)N[C@@H](CCC(N)=O)C(=O)N[C@@H](CCCNC(=N)N)C(=O)N[C@@H](Cc1ccc(O)cc1)C(N)=O)[C@@H](C)O)C(C)C
EC50 (hY2 cAMP, HTRF cAMP Gi assay) [9]: 0.375 nM
Ki [5]: 1.69 nM

B5: Compound 84 (peptide)
peptide: Isovaleryl-APEK([AEEA-AEEA-γGlu-C18 diacid])PEEDASPEEIQRYYVSLRHYYNWLTRQRY-NH2
Ki [3]: 6.6 nM
Ki [5]: 1.19 nM
Ki [8]: 3.5 nM

B6: Compound 106 (peptide)
peptide: Isovaleryl-APAK([AEEA-AEEA-γGlu-C18 diacid])PEEDATPEELQRYYVSLRHYYNWLTRQRY-NH2
RLB ratio (RLB8/RLB7) [1]: 0.8
RLB ratio (RLB6/RLB7) [2]: 0.8
Ki [3]: 7.7 nM
Ki [4]: 9.3 nM
Ki [5]: 0.66 nM
Ki [6]: 7.5 nM
EC50 (HTRF cAMP Gi assay) [7]: 0.173 nM
EC50 (HTRF cAMP Gi assay) (human NPY1 receptor): > 5000 nM
EC50 (HTRF cAMP Gi assay) (human NPY5 receptor): > 5000 nM
EC50 (HTRF cAMP Gi assay) (human NPY4 receptor): > 5000 nM
Ki [8]: 6 nM

B7: Compound 203 (peptide)
peptide: Isovaleryl-APAK([AEEA-AEEA-γGlu-C18 diacid])PEEDASPEELQRYYVSLRHYYNWLTRQRY-NH2
Ki [3]: 4.6 nM
Ki [4]: 11.1 nM
Ki [5]: 0.75 nM
Ki [8]: 3 nM

Binders with a lower Ki [5], results first:

RLB ratio (RLB8/RLB7) [1]: 1
RLB ratio (RLB6/RLB7) [2]: 1
Ki [3]: 6.3 nM
Ki [4]: 6.3 nM
Ki [5]: 0.63 nM
Ki [6]: 6.3 nM
EC50 (HTRF cAMP Gi assay) [7]: 0.15 nM
EC50 (HTRF cAMP Gi assay) (human NPY1 receptor): > 5000 nM
EC50 (HTRF cAMP Gi assay) (human NPY5 receptor): > 5000 nM
EC50 (HTRF cAMP Gi assay) (human NPY4 receptor): > 5000 nM
Ki [8]: 4.9 nM
B1: Compound 23 (peptide)
peptide: Isovaleryl-APAK([AEEA-AEEA-γGlu-C18 diacid])PEEDASPEEIQRYYVSLRHYYNWLTRQRY-NH2

RLB ratio (RLB8/RLB7) [1]: 0.5
RLB ratio (RLB6/RLB7) [2]: 0.9
Ki [3]: 3.8 nM
Ki [4]: 4.4 nM
Ki [5]: 0.29 nM
Ki [6]: 2.3 nM
Ki [8]: 4.6 nM
B2: Compound 29 (peptide)
peptide: Isovaleryl-APEK([AEEA-AEEA-γGlu-C18 diacid])PEAPASPEELQRYYVELRHYYNWLTRQRY-NH2
SMILES: CC(C)CC(=O)N[C@@H](C)C(=O)N1CCC[C@H]1C(=O)N[C@@H](CCC(=O)O)C(=O)N[C@@H](CCCCNC(=O)COCCOCCNC(=O)COCCOCCNC(=O)CC[C@H](NC(=O)CCCCCCCCCCCCCCCCC(=O)O)C(=O)O)C(=O)N1CCC[C@H]1C(=O)N[C@@H](CCC(=O)O)C(=O)N[C@@H](C)C(=O)N1CCC[C@H]1C(=O)N[C@@H](C)C(=O)N[C@@H](CO)C(=O)N1CCC[C@H]1C(=O)N[C@@H](CCC(=O)O)C(=O)N[C@@H](CCC(=O)O)C(=O)N[C@@H](CC(C)C)C(=O)N[C@@H](CCC(N)=O)C(=O)N[C@@H](CCCNC(=N)N)C(=O)N[C@@H](Cc1ccc(O)cc1)C(=O)N[C@@H](Cc1ccc(O)cc1)C(=O)N[C@H](C(=O)N[C@@H](CCC(=O)O)C(=O)N[C@@H](CC(C)C)C(=O)N[C@@H](CCCNC(=N)N)C(=O)N[C@@H](Cc1c[nH]cn1)C(=O)N[C@@H](Cc1ccc(O)cc1)C(=O)N[C@@H](Cc1ccc(O)cc1)C(=O)N[C@@H](CC(N)=O)C(=O)N[C@@H](Cc1c[nH]c2ccccc12)C(=O)N[C@@H](CC(C)C)C(=O)N[C@H](C(=O)N[C@@H](CCCNC(=N)N)C(=O)N[C@@H](CCC(N)=O)C(=O)N[C@@H](CCCNC(=N)N)C(=O)N[C@@H](Cc1ccc(O)cc1)C(N)=O)[C@@H](C)O)C(C)C

RLB ratio (RLB8/RLB7) [1]: 0.8
RLB ratio (RLB6/RLB7) [2]: 1.1
Ki [3]: 3.4 nM
Ki [4]: 3.1 nM
Ki [5]: 0.24 nM
Ki [6]: 2.5 nM
EC50 (HTRF cAMP Gi assay) [7]: 0.119 nM
EC50 (HTRF cAMP Gi assay) (human NPY1 receptor): > 5000 nM
EC50 (HTRF cAMP Gi assay) (human NPY5 receptor): > 5000 nM
EC50 (HTRF cAMP Gi assay) (human NPY4 receptor): > 5000 nM
Ki [8]: 2 nM
B4: Compound 53 (peptide)
peptide: Isovaleryl-APEK([AEEA-AEEA-γGlu-C18 diacid])PEADASPEEIQRYYVSLRHYYNWLTRQRY-NH2
